Experiment [1] concerns the target T1, amphyphisin SH3 (AMPH_HUMAN), P49418.
T1 chain: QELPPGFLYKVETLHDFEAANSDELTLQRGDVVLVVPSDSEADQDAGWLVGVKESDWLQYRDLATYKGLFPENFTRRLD
Kind of experiment: SPOT array.

The target in experiment [2] is endophilin SH3 (SH3G2_HUMAN), Q99962. Briefly: SPOT array.

As for LVSRLRRPVSEVSG [Q96Q82 70-83], the values for the normalised SPOT signal, Boehringer light units (BLU); mean over the file's lines of this peptide in experiment [1] and in experiment [2] were 112 and 96.8, respectively.
The matching figures for MKVHIKRPEMTSSS [Q9GZZ2 864-877]: 27.3 and 163.
The matching figures for AQPQPLRPPRRVSS [Q99743 799-812]: 25300 and 1160.
The matching figures for LYRGLSRPIRRTTQ [Q9H455 29-42]: 789 and 234.
In the case of LYGLLQRPVRLALG [Q9BZJ7 289-302], the figures for the normalised SPOT signal, Boehringer light units (BLU); mean over the file's lines of this peptide in experiment [1] and in experiment [2] were 1270 and 1110, respectively.
For MLLLPPRPPHPRSS [Q9NPP7 87-101], the normalised SPOT signal, Boehringer light units (BLU); mean over the file's lines of this peptide amounted to 3000 in experiment [1] and 11500 in experiment [2].
For MKKGPTRPPRPSTP [Q9Y4E6 583-597], in that order: 10700 and 17300.
For MEHSPQRPPRTEPT [Q96M26 524-538], in that order: 14500 and 1100.
In the case of MAASLKRPDSGATG [P20849 777-790], the normalised SPOT signal, Boehringer light units (BLU); mean over the file's lines of this peptide in experiment [1] turned out to be 27.1; in experiment [2], 34.5.
On to MLAMPRRPDPVFLN [Q13808 54-67], for which the normalised SPOT signal, Boehringer light units (BLU); mean over the file's lines of this peptide amounted to 57.7 in experiment [1] and 214 in experiment [2].
Regarding MAGLPFRPPWGSLS [Q8WUS6 527-541], the normalised SPOT signal, Boehringer light units (BLU); mean over the file's lines of this peptide stood at 73 in experiment [1] and 4340 in experiment [2].
For MSRVFKRPFSEPSA [Q9NW15 466-479], in that order: 88.8 and 627.
In the case of AAQPPQKPPASYFA [O15399 995-1009], the normalised SPOT signal, Boehringer light units (BLU); mean over the file's lines of this peptide in experiment [1] amounted to 45.4; in experiment [2], 125.
For MHNFPLRPPPPPPP [Q96HR8 430-444], in that order: 68.7 and 213.
The matching figures for MENNLRRPNLEAFN [P08700 68-81]: 27.1 and 14.8.
For MKTSPRRPLILKRR [Q08050 1-14], in that order: 150 and 2850.
Turning to LWPPLYRPRRDAFE [Q13635 1311-1324], the normalised SPOT signal, Boehringer light units (BLU); mean over the file's lines of this peptide in experiment [1] came to 1260; in experiment [2] it was 3920.
The matching figures for MFEDPTRPGKQQQL [Q14209 197-210]: 18.6 and 120.
In the case of LWRRFGRPAKSSTP [Q9NS62 435-448], the normalised SPOT signal, Boehringer light units (BLU); mean over the file's lines of this peptide came out at 105 in experiment [1] and 114 in experiment [2].
In the case of MAQSIYRPSKNLDK [Q13573 443-456], the results for the normalised SPOT signal, Boehringer light units (BLU); mean over the file's lines of this peptide in experiment [1] and in experiment [2] were 153 and 185, respectively.
For MLANPRRPIAQWHT [P21579 394-407], in that order: 108 and 122.
MKDIPKRPFSQSLS [Q9Y6E0 364-377]: the figures for the normalised SPOT signal, Boehringer light units (BLU); mean over the file's lines of this peptide in experiment [1] and in experiment [2] were 99.5 and 2820, respectively.
The matching figures for MFQALKRPDDTAFQ [O94901 782-795]: 38.2 and 54.5.
The matching figures for MLANPRRPIAQWHS [O00445 360-373]: 33.7 and 551.
As for AQARLKRPLKSLDG [Q9NXU2 68-81], the normalised SPOT signal, Boehringer light units (BLU); mean over the file's lines of this peptide in experiment [1] was found to be 117; in experiment [2] it was 109.
Turning to MKRKPGRPRRSPPS [Q9UPS6 353-366], the values for the normalised SPOT signal, Boehringer light units (BLU); mean over the file's lines of this peptide in experiment [1] and in experiment [2] were 138 and 989, respectively.
For MLLRLARPAKLSEL [Q92876 108-121], in that order: 346 and 342.
For MDGFLSRPSRPLLQ [Q9P0N2 51-64], in that order: 295 and 236.
The matching figures for MLDMFKRPTDPPEY [Q13423 581-594]: 34.5 and 56.5.
Take LYRFPGKPPTYVTD [Q9NU18 93-107]: the values for the normalised SPOT signal, Boehringer light units (BLU); mean over the file's lines of this peptide in experiment [1] and in experiment [2] were 39 and 157, respectively.
The matching figures for LWRQPRRPIRIQQR [Q08493 32-45]: 3170 and 1000.
As for LYWLLRRPSGVVLS [Q96DN1 10-23], the values for the normalised SPOT signal, Boehringer light units (BLU); mean over the file's lines of this peptide in experiment [1] and in experiment [2] were 180 and 158, respectively.
For LYLRLKRPKPERDL [P11230 356-369], in that order: 42.9 and 70.6.
For the molecule LVSIPERPLRPPSE [Q9Y2W3 70-83], the normalised SPOT signal, Boehringer light units (BLU); mean over the file's lines of this peptide is 3540 in experiment [1] and 310 in experiment [2].
For MKPPPRRPPGNISW [Q02246 907-921], in that order: 1010 and 1910.
LVVDPRRPFRKLNA [Q9H4M9 114-127]: the normalised SPOT signal, Boehringer light units (BLU); mean over the file's lines of this peptide in experiment [1] came out at 2940; in experiment [2] it was 179.
For AQQLLKRPRGPSPL [Q9Y2K2 611-624], in that order: 55.3 and 75.7.
For MDFSPPRPPYPSYP [Q14934 712-726], in that order: 18 and 978.

(Values after PMC314469, “Protein Interaction Networks by Proteome Peptide Scanning” (PLoS Biology, 2004).)
